Data taken from patent publication US20160108098A1 (GlaxoSmithKline, published 2016).
Where no end group is shown, it is not given here.

T1: human Neuropeptide Y receptor type 2 (human, UniProt P49146 1-381)
T1 sequence (looked up): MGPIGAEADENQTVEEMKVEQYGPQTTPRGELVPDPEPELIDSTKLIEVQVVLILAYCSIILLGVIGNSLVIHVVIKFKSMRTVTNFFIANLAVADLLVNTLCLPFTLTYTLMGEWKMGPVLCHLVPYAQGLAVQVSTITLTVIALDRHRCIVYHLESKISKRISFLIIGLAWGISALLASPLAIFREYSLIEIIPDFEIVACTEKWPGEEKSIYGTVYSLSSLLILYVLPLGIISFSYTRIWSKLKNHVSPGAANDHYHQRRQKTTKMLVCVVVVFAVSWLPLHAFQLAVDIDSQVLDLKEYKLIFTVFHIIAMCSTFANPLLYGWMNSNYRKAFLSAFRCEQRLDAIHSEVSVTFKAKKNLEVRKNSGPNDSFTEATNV


What follows are binders tested against T1, human Neuropeptide Y receptor type 2 (assay: cell-based or functional assay).

Row | hNPY Y2 pEC50 [pEC50] | Binder
1 | 9.8 | PKPEAPGKDASPEELNRYYASLRKYLNWLTRQRY-NH2 [Example 2]
2 | 9.6 | PKPEHPGKDASPEEWNRYYASLRKYLNWVTRQRY-NH2 [Example 25]
3 | 9.8 | PKPEAPGKDASPEELNRYYASLRKYLNWVTRQRY-NH2 [Example 31]

Biological target: T1, human Neuropeptide Y receptor type 2
Assay: cell-based or functional assay
Remark: another data set of the same source

Row | hNPY Y2 pEC50 [pEC50] | Binder
4 | 8.9 | PKPVAPGCDASPAELNRQYSDLRNYWNLVTRQRY-NH2 [Peptide 15]
5 | 9.3 | IKPPYPGCDASPEEQNKYYASLRAYWNLVTRQRY-NH2 [Peptide 8]
6 | 8.2 | PKPEAPGCDASPEEWNRYYASLRKYLNWVTRQHY-NH2 [Peptide 14]
7 | 9.2 | PKPEAPGEDASPKEWNRYYASLRKYLNWVTRQRY-NH2 [Peptide 3]
8 | 7.9 | PKPEAPGCDASPEEWNRYYASLRKYLNWVTRQNY-NH2 [Peptide 1]
9 | 8.6 | IKPEAPLSKQLEEEAVRYYASLRHYLNLVTRQRY-NH2 [Peptide 2]
10 | 8.7 | PKPEAPLSKQLEEEAVRYYASLRHYLNLVTRQRY-NH2 [Peptide 21]
